T1: 24P4C12 protein (human) (human, UniProt Q53GD3 1-710)
T1 construct: whole, on cells; also called SLC44A4; CTL4
T1 sequence (looked up): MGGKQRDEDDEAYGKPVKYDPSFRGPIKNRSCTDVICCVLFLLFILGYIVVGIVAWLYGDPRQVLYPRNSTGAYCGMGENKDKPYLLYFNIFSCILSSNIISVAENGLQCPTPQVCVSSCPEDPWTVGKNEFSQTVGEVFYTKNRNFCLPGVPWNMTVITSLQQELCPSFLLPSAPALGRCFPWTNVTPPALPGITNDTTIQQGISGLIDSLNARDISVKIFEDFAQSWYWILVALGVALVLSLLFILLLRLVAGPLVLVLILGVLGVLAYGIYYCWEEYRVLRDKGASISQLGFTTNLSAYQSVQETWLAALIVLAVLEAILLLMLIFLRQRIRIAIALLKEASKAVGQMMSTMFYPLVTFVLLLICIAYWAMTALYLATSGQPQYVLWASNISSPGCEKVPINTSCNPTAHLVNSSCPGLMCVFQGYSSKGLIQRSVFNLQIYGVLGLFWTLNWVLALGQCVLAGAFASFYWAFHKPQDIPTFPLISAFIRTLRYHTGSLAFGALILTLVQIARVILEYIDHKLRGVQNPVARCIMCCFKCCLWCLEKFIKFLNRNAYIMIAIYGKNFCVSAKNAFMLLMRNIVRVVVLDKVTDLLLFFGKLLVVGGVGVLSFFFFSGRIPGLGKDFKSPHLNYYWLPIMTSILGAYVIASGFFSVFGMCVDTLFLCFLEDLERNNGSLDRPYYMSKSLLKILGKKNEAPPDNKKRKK


Target: T1, 24P4C12 protein (human)
Assay: FACS saturation equilibrium binding on LNCaP cells
Procedure: The affinity to LNCaP cells was determined by FACS using saturation equilibrium binding assay. […] At the end of incubation, the cells were washed with FACS Buffer and incubated with 100 ul of detection antibody (anti-hIgG-PE) for 45 minutes at 4° C., the cells were then washed with FACS Buffer, fixed with 2% Formaldehyde and analyzed using FACScan. FACS data were analyzed using CellQuest Pro software to acquire histogram and Mean Fluoresces Intensity (MFI) values of each point. The MFI values were used to calculate the binding affinity using non-linear regression using Prism4 software (Graphpad Software Inc. San Diego Calif.).

Kd [nM]	Binder
0.45	Ha5-3(3,5)37.1 (antibody, V domains shown) VH: QVQLQESGPGLVKPSETLSLTCTVSGGSISSYYWSWIRQPPGKGLEWIGYIYYSGSTNYNPSLKSRVTISVDTSKNQFSLKLNSVTAADTAVYYCARGYYYGSESPYGMDVWGQGTTVTVSS VL: DIVMTQSPLSLPVTPGEPASISCRSSQSLLHSNGHNYLDWYLQKPGQSPHLLIYLGSNRDSGVPDRFSGSGSGTDFTLKISRVEAEDVGVYYCMQALQIPCSFGQGTKLEIK
0.07	Ha5-8ac4.1 (antibody, V domains shown, also called Ha5-8acd4.1) VH: QVQLQESGPGLVKPSETLSLTCTVSGGSISRYYWSWIRQPAGKGLERIGRIYTSGSTDYNPSLKSRVTMSVDTSKNQFSLKLRSVTAADTAVYYCARDLYSNGYWYFDLWGRGTLVTVSS VL: QSVLTQPPSVSGAPGQRVTISCTGSSSNIGAGYDVHWYQQLPGTAPKLLIYGNSNRPSGVPDRFSGSKSGTSASLAITGLQAEDEADYYCQSYDSSLSGVVFGGGTKLTVL
1.95	Ha5-7acd2.1 (antibody, V domains shown) VH: QVQLQESGPGLVKPSETLSLTCTVSGGSISSYYWSWIRQPPGKGLEWIGYIYYSGSTNYNPSLKSRVTISVDTSKNQFSLKLSSVTAADTAVYYCANTYYYGSGYGMDVWGQGTTVTVSS VL: DIVMTQSPLSLPVTPGEPASISCRSSQSLLHSTGHNYLDWYLQKPGQSPQLLIYLGSIRASGVPDRFSGSGSGTDFTLKISRVEAEDVGVYYCMQALQTITFGQGTRLEIK
0.19	Ha5-7acd19.1 (antibody, V domains shown, Labelled with Alexa Fluor 488 dye in the FIG. 14 experiment; the site is not stated and the letters do not carry it., copies: 2 + 2) VH: QVQLQESGPGLVKPSETLSLTCTVSGGSISSYYWSWIRQPPGKGLEWIGFIYYTGSTNYNPSLKSRVTISVDTSKNQFSLKLSSVTAADTAVYYCANTYYYGSGYGMDVWGQGTTVTVSS VL: not shown
1.85	Ha5-7acd7.1.1 (antibody, V domains shown, copies: 2 + 2) VH: QVQLQESGPGLVKPSETLSLTCTVSGGSVSSGGYYWSWIRQPPGKGLEWIGYIYYSGGTNYNPSLKSRVTISVDTSKNQFSLKLTSVTAADTAVYYCARESGYCTNVACFPDAFDIWGQGTMVTVSS VL: DVVMTQSPFSLPVTPGEPASISCRSSQSLLHSNGFNFLDWYLQKPGQSPQLLIYLGSIRASGVPDRFSGSGSGTDFTLKISRVEAEDVGVYYCMQALQTPLTFGGGTRVEIK
4.1	Ha5-1(5)1 (antibody, V domains shown, also called HA5-1(5)1.1) VH: QVQLVESGGGVVQPGRSLRLSCGASGFTFSSYGMHWVRQAPGKGLEWVAVMSYDGSKKYYTDSVKGRFTISRDNSKNTLYLQMNSLRVEDTAVYYCARDGGDYVRYYYYGMDVWGQGTTVTVSS VL: DIQMTQSPSSLSASVGDRVTITCRARQGITYHLAWYQQRPGKVPKLLIYDTSSLQSGVPSRFSGSGSGTDFTLTISSLQPEDVATYYCQRFNSAPLTFGGGTKVEIK
2.75	Ha5-1(5)2.1 (antibody, V domains shown) VH: QVQLVESGGGVVQPGRSLRLSCAASGFTFSSYGMHWVRQAPGKGLEWVAVMSYDGSKKFYTDSVKGRFTISRDNSKNTLYLQMNSLRAEDTAVYYCARDGGDYVRYHYYGMDVWGQGTTVTVSS VL: DIQMTQSPSTLSASIGDRVTITCRASQGISYYLAWYQQKPGKIPKLLIYDTSSLQSGVPSRFSGSRSGTDLSLTISSLQPEDVATYYCQRYDSAPLTFGGGTKVEIK
1.26	Ha5-7acd10.1 (antibody, V domains shown, copies: 2 + 2) VH: QVQLVESGGGVVQPGRSLRLSCAASGFTFSSYGMHWVRQAPGKGLEWVAVIWYDGSNKYYADSVKGRFTISRDNSKNTLYLQMNSLRAEDTAVYYCARDRYSGYDYYYYYGMDVWGQGTTVTVSS VL: DIQMTQSPSSLSASVGDRVTITCRASQGIYNYLAWFQQKPGKAPKSLIYAASSLHSGVPSKFSGGGSGTDFTLTISSLQPEDFATYYCQQYTIYPFTFGPGTKVDIK
3.4	Ha5-11b1.1 (antibody, V domains shown) VH: QVQLVESGGGVVQPGRSLRLSCAASGFTFSSHGMHWVRQAPGKGLEWVAVIWYDGSNKYYADSVKGRFTISRDNSKNTLYLQMNSLRAEDTAVYYCARDQYSGYDLYYYYGMDVWGQGTTVTVSS VL: not shown
5.5	Ha5-3(1,4)7.1 (antibody, V domains shown, Labelled with Alexa Fluor 488 in the FIG. 14 experiment. The site is not stated and the letters do not carry it.) VH: QVQLVESGGGVVQPGRSLRLSCAASGFTFSSYGMHWVRQAPGKGLEWVAVIWYDGSNKYYADSVKGRFTISRDNSKNTLYLQMNSLRAEDTAVYYCARDRYSGYGYYYYYGMDVWGQGTTVTVSS VL: DIQMTQSPSSLSASVGDRVTITCRASQDISNYLAWFQQKPGKAPKSLIYAASSLHSGVPSKFSGSGSGTDFTLTISSLQPEDFATYYCQQYTIYPFTFGPGTKVDIK
1.1	Ha5-7acd20.1.1 (antibody, V domains shown) VH: QVQLVESGGGVVQPGRSLRLSCAASGFTFSSYGMHWVRQAPGKGLEWVAVIWYDGRNKYYVDSVKGRFTISRDNSKNTLYLQMNSLRAEDTAVYYCARDRYSGSDYYYYYGMDVWGQGTTVTVSS VL: DIQMTQSPSSLSASVGDRVTITCRASQGIYNYLAWFQQKPGKAPKSLIYAASSLQSGVPSKFSGSGSGTVFTLTISSLQPEDFATYYCQQYTVYPFTFGPGTKVDFK
0.7	Ha5-7acd16.1 (antibody, V domains shown, also called HA5-acd16.1; copies: 2 + 2) VH: QVQLVESGGGVVQPGRSLRLSCAASGFTFSSHGMHWVRQAPGKGLEWVAVIWYDGSNKYYADSVKGRFTISRDNSKNTLYLQMNSLRAEDTAVYYCARDAYSGYDYYYYYGMDVWGQGTTVTVSS VL: DIQMTQSPSSLSASVGDRVTITCRASQGIYTYLAWFQQKPGKAPKSLIYGASSLQSGVPSKFSGSGSGTDFTLTITSLQPEDFATYYCQQYTIYPFSFGPGTKVDIK
4.4	Ha5-7acd3.1 (antibody, V domains shown) VH: QVQLVESGGGVVQPGRSLRLSCAASGFTFSSYGMHWVRQAPGKGLEWVAVIWYDGSNKYYTDSVKGRFTISRDNSKNTLYLQMNSLRAEDTAVYYCARDRYSGYDYFYYYGMDVWGQGTTVTVSS VL: DIQMTQSPSSLSASVGDRVTITCRASQGIYNYLAWFQQKPGKAPRSLIYAASSLHSGVPSKFSGSGSGTDFTLTISSLQPEDFATYYCQQYTIYPFTFGPGTKVDIK
0.99	Ha5-7acd4.1 (antibody, V domains shown) VH: QVQLVESGGGVVQPGRSLRLSCAASGFTFSSYGMHWVRQAPGKGLEWVAVIWYDGSNKYYADSVKGRFTISRDNSKNTLYLQMNSLRAEDTAVYYCARDRYSGYDYYYYYGMDVWGQGTTVTVSS VL: DIQMTQSPSSLSASVGDRVTITCRASQVIYNYLAWFQQKPGKAPKSLIYGASSLHSGVPSKFSGSGSGTEFTLTISSLQPEDFATYYCQQYTIYPFSFGPGTKVDIK
3.2	Ha5-7be20.1 (antibody, V domains shown) VH: QVQLQESGPGLVKPSETLSLTCTVSGGSISSYYWSWIRQPPGKGLEWIGYIYYSGSTNYNPSLKSRVTISVDTSKNQFSLKLSSVTAADTAVYYCARGYYYGSGSYGLDVWGQGTTVTVSS VL: not shown
4.15	Ha5-7be31.1 (antibody, V domains shown, copies: 2 + 2) VH: QVQLQESGPGLVKPSETLSLTCTVSGGSISSYYWSWIRQPPGKGLEWIGYIYYSGSTNYNPSLKSRVTISVDTSKNQFSLKLSSVTAADTAVYYCARGYYYGAGSYGMDVWGQGTTVTVSS VL: DIVMTQSPLSLPVTPGEPASISCRSSQSLLHSTGFNYLDWYLQKPGQSPQLLIYLGSIRASGVPDRFSGSGSGTDFTLKISRVETEDVGVYYCMQTLQTPITFGQGTRLEIK

Reference: patent publication US20090175796A1 (AGENSYS, published 2009)
